Drawing on patent EP3177737B1 (Arizona Board of Regents on behalf of the University of …, dated 2020), this text covers IC50, binding result and binding affinity for 14 molecules.

B1: Peptide 32 (penta-N-methylated compound 32): Ac-Nle-c[Asp-(NMe)His-(NMe)nal-(NMe)Arg-(NMe)Trp-(NMe)Lys]-NH2 (peptide)
peptide: LDHXRWK
modifications: N-terminal acetyl; Nle at 4; D-Nal(2') (nal) at 7; Asp5-Lys10 side-chain lactam ring; C-terminal amide; backbone N-methyl on His6, nal7, Arg8, Trp9 and Lys10 (alpha-MSH numbering 4-10)
notes: NO; 32; No. 32 to the hMC1R antagonist
B2: Peptide 10: Ac-Nle-c[Asp-(NMe)His-nal-Arg-Trp-(NMe)Lys]-NH2 (peptide)
peptide: LDHXRWK
modifications: N-terminal acetyl; Nle at 4; D-Nal(2') (nal) at 7; Asp5-Lys10 side-chain lactam ring; C-terminal amide; backbone N-methyl on His6 and Lys10 (alpha-MSH numbering 4-10)
B3: Peptide 16: Ac-Nle-c[Asp-(NMe)His-(NMe)nal-Arg-Trp-Lys]-NH2 (peptide)
peptide: LDHXRWK
modifications: N-terminal acetyl; Nle at 4; D-Nal(2') (nal) at 7; Asp5-Lys10 side-chain lactam ring; C-terminal amide; backbone N-methyl on His6 and nal7 (alpha-MSH numbering 4-10)
B4: Peptide 8: Ac-Nle-c[Asp-His-nal-(NMe)Arg-Trp-(NMe)Lys]-NH2 (peptide)
peptide: LDHXRWK
modifications: N-terminal acetyl; Nle at 4; D-Nal(2') (nal) at 7; Asp5-Lys10 side-chain lactam ring; C-terminal amide; backbone N-methyl on Arg8 and Lys10 (alpha-MSH numbering 4-10)
B5: Peptide 11: Ac-Nle-c[Asp-His-nal-(NMe)Arg-(NMe)Trp-Lys]-NH2 (peptide)
peptide: LDHXRWK
modifications: N-terminal acetyl; Nle at 4; D-Nal(2') (nal) at 7; Asp5-Lys10 side-chain lactam ring; C-terminal amide; backbone N-methyl on Arg8 and Trp9 (alpha-MSH numbering 4-10)
B6: Peptide 7: Ac-Nle-c[Asp-His-nal-Arg-(NMe)Trp-(NMe)Lys]-NH2 (peptide)
peptide: LDHXRWK
modifications: N-terminal acetyl; Nle at 4; D-Nal(2') (nal) at 7; Asp5-Lys10 side-chain lactam ring; C-terminal amide; backbone N-methyl on Trp9 and Lys10 (alpha-MSH numbering 4-10)
B7: Peptide 3: Ac-Nle-c[Asp-His-nal-Arg-(NMe)Trp-Lys]-NH2 (peptide)
peptide: LDHXRWK
modifications: N-terminal acetyl; Nle at 4; D-Nal(2') (nal) at 7; Asp5-Lys10 side-chain lactam ring; C-terminal amide; backbone N-methyl on Trp9 (alpha-MSH numbering 4-10)
B8: Peptide 15: Ac-Nle-c[Asp-(NMe)His-nal-(NMe)Arg-Trp-Lys]-NH2 (peptide)
peptide: LDHXRWK
modifications: N-terminal acetyl; Nle at 4; D-Nal(2') (nal) at 7; Asp5-Lys10 side-chain lactam ring; C-terminal amide; backbone N-methyl on His6 and Arg8 (alpha-MSH numbering 4-10)
B9: Peptide 28: Ac-Nle-c[Asp-(NMe)His-nal-(NMe)Arg-(NMe)Trp-(NMe)Lys]-NH2 (peptide)
peptide: LDHXRWK
modifications: N-terminal acetyl; Nle at 4; D-Nal(2') (nal) at 7; Asp5-Lys10 side-chain lactam ring; C-terminal amide; backbone N-methyl on His6, Arg8, Trp9 and Lys10 (alpha-MSH numbering 4-10)
B10: Peptide 4: Ac-Nle-c[Asp-His-nal-(NMe)Arg-Trp-Lys]-NH2 (peptide)
peptide: LDHXRWK
modifications: N-terminal acetyl; Nle at 4; D-Nal(2') (nal) at 7; Asp5-Lys10 side-chain lactam ring; C-terminal amide; backbone N-methyl on Arg8 (alpha-MSH numbering 4-10)
B11: Peptide 6: Ac-Nle-c[Asp-(NMe)His-nal-Arg-Trp-Lys]-NH2 (peptide)
peptide: LDHXRWK
modifications: N-terminal acetyl; Nle at 4; D-Nal(2') (nal) at 7; Asp5-Lys10 side-chain lactam ring; C-terminal amide; backbone N-methyl on His6 (alpha-MSH numbering 4-10)
B12: Peptide 2: Ac-Nle-c[Asp-His-nal-Arg-Trp-(NMe)Lys]-NH2 (peptide)
peptide: LDHXRWK
modifications: N-terminal acetyl; Nle at 4; D-Nal(2') (nal) at 7; Asp5-Lys10 side-chain lactam ring; C-terminal amide; backbone N-methyl on Lys10 (alpha-MSH numbering 4-10)
B13: Peptide 19: Ac-Nle-c[Asp-(NMe)His-nal-Arg-(NMe)Trp-(NMe)Lys]-NH2 (peptide)
peptide: LDHXRWK
modifications: N-terminal acetyl; Nle at 4; D-Nal(2') (nal) at 7; Asp5-Lys10 side-chain lactam ring; C-terminal amide; backbone N-methyl on His6, Trp9 and Lys10 (alpha-MSH numbering 4-10)
B14: Peptide 14: Ac-Nle-c[Asp-His-(NMe)nal-(NMe)Arg-Trp-Lys]-NH2 (peptide)
peptide: LDHXRWK
modifications: N-terminal acetyl; Nle at 4; D-Nal(2') (nal) at 7; Asp5-Lys10 side-chain lactam ring; C-terminal amide; backbone N-methyl on nal7 and Arg8 (alpha-MSH numbering 4-10)

T2 sequence (P33032 whole entry): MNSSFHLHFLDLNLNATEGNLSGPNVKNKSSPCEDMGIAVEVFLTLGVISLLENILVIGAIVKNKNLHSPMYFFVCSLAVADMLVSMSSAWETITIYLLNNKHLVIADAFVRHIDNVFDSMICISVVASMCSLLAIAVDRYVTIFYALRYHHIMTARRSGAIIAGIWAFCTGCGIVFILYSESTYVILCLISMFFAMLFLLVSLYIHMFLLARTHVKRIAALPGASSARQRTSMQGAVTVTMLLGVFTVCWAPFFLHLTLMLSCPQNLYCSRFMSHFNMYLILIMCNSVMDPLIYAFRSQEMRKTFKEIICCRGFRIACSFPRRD

The first assay deals with T1, human melanocortin 1 receptor (human, UniProt Q01726 1-317).
T1 construct: whole, on cells; also called hMC1R; hMC1 receptor
T1 sequence (Q01726 whole entry): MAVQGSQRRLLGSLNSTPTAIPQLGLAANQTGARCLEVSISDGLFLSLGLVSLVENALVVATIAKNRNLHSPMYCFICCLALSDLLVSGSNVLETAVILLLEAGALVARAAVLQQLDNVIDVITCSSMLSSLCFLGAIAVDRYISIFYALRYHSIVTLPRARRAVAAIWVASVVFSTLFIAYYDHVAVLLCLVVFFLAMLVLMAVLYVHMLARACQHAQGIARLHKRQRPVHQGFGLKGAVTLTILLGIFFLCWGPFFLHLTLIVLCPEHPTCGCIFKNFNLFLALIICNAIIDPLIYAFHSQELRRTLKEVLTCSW
Kind of assay: competition with [125I]-NDP-alpha-MSH on whole HEK293 cells expressing the receptor.
The molecule B1 gave an IC50 of 68 nM.

The next assay concerns the target T2, human melanocortin 5 receptor (human, UniProt P33032 1-325).
T2 construct: whole, on cells; also called hMC5R; hMC5 receptor
The description is as above.
For the molecule B2, the binding result was “binds”.
B3: the binding result was “binds”.
On the same count and under the same terms, for B4 the value was “binds”.
The same measure, in the same setting: the same measure for B5: “binds”; for B6: “binds”; for B7: “binds”.
As for B8, the binding result is listed as “binds”.
In the case of B9, the binding result is “binds”.
B10: the binding result was “binds”.
On the same count and under the same terms, for B11 the value was “binds”; for B12, “binds”.
On the same count and under the same terms, for B13 the value was “binds”.
B14: the binding result is “binds”.

The target of a further assay is T3, human melanocortin 3 receptor (human, UniProt P41968 1-323).
T3 construct: whole, on cells; also called hMC3R; hMC3 receptor
T3 sequence (P41968 whole entry): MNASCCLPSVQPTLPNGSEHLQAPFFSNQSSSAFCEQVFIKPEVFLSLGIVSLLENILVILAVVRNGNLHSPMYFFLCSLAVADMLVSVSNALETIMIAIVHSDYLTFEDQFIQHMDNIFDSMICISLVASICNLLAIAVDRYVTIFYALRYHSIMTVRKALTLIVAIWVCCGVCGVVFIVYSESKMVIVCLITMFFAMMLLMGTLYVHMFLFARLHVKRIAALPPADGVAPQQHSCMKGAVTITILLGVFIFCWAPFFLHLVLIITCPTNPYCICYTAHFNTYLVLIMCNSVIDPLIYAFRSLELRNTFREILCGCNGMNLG
As to the kind of experiment: assay not given; taken as the competition binding assay on HEK293 cells.
Molecule B8 displayed a binding affinity of 15 nM.

The target in another assay is T1, human melanocortin 1 receptor. Kind of assay: competition with [125I]-NDP-alpha-MSH on A375 human melanoma cells.
In the case of B8, the IC50 was 14.8 nM.
